Molecular target: CUL2^ZYG11B (residues 490–728) (human) (UniProt Q9C0D3)
Test: ITC; MicroCal iTC200; peptides (0.5–1 mmol/L) in the syringe, CUL2^ZYG11B(490–728) (0.03 mmol/L) in the cell; 18 injections of 2 μL; repeated 3 times

Sequence of CUL2^ZYG11B (residues 490–728) (human) (Q9C0D3 490-728): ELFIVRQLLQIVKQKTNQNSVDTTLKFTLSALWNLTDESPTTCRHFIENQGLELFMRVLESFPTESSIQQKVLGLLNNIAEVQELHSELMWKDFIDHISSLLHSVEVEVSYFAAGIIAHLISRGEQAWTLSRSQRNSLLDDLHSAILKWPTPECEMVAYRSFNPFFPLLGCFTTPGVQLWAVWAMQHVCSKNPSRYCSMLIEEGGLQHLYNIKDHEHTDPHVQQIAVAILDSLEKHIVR

Row | Substance | fold decrease of binding against ORF10 N5 [fold] | Kd [µM]
1 | SARS-CoV-2 ORF10 N5 peptide G1A | 4 | –
2 | SARS-CoV-2 ORF10 N5 peptide G1S | 4 | –
3 | SARS-CoV-2 ORF10 N5 peptide I3A | – | 5.61
4 | SARS-CoV-2 ORF10 N5 peptide I3F | – | 0.87
5 | SARS-CoV-2 ORF10 N5 peptide N4A | – | 0.59
6 | SARS-CoV-2 ORF10 N5 peptide Y2A | – | 25.2
7 | SARS-CoV-2 ORF10 N5 peptide Y2F | – | 4.73
